# Legend:
# [1] = test system: TRAC TALEN right monomer (artificial); assay: cell_activity; conditions: as TALEN pair with left monomer; primary human T cells, plateau by 72 h
# [2] = test system: TRAC TALEN left monomer (artificial); assay: cell_activity; conditions: as TALEN pair with right monomer; primary human T cells, plateau by 72 h
sequence,measurement,setting,value
GGTACAGGTAAGAGCAA (double strand) [TRAC TALEN right half-site],activity,[1],90 % indels
TTCCTCCTACTCACCAT (double strand) [TRAC TALEN left half-site],activity,[2],90 % indels

# Source: patent US20230212613
